Measured values: publication PMC2112911
Values joined by “and” are separate entries in the source; they are usually repeats but may differ in a detail not shown here. Equal values may be shown once. Read-outs that look alike come from different tables or passages of the source.

Assays:
[1] = molecular target: Acanthamoeba myosin-II, 4.9 heavy chain phosphates per molecule (Acanthamoeba); assay: sedimentation
[2] = molecular target: Acanthamoeba myosin-II (Acanthamoeba); assay: electron microscopy
[3] = molecular target: Acanthamoeba myosin-II (Acanthamoeba); assay: electron microscopy; remark: listed apart in the source
[4] = molecular target: Acanthamoeba myosin-II, 2.6 heavy chain phosphates per molecule (Acanthamoeba); assay: sedimentation
[5] = molecular target: Acanthamoeba myosin-II, 2.6 heavy chain phosphates per molecule (Acanthamoeba); assay: sedimentation; remark: listed apart in the source
[6] = molecular target: Acanthamoeba myosin-II, 2.6 heavy chain phosphates per molecule (Acanthamoeba); assay: sedimentation; remark: listed apart in the source
[7] = molecular target: Acanthamoeba myosin-II, 2.6 heavy chain phosphates per molecule (Acanthamoeba); assay: sedimentation; remark: listed apart in the source
[8] = molecular target: Acanthamoeba myosin-II, dephosphorylated, 0.8 heavy chain phosphates per molecule (Acanthamoeba); assay: sedimentation

Acanthamoeba myosin-II, 4.9 heavy chain phosphates per molecule (complex)
critical concentration [1]: < 5 µg/mL

Acanthamoeba myosin-II (complex)
stoichiometry N [2]: > 35
stoichiometry N [3]: 16 and > 12

Acanthamoeba myosin-II, 2.6 heavy chain phosphates per molecule (complex)
critical concentration [4]: 14 µg/mL and 18 µg/mL and 15 µg/mL
critical concentration [5]: 20 µg/mL and 15 µg/mL
critical concentration [6]: 26 µg/mL
critical concentration [7]: 24 µg/mL and 32 µg/mL

Acanthamoeba myosin-II, dephosphorylated, 0.8 heavy chain phosphates per molecule (complex)
critical concentration [8]: 18 µg/mL
